Consider 53 substances from the supplement of paper PMC12042874.

± gives the uncertainty stated by the source.

A short description of this data set: amyloid nucleation score (Sup35N fusion, yeast selection) (log enrichment); library NNK3; higher = more nucleation; inactive = no reads after selection. In a few lines: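 The nucleation score equals the log enrichment of output over input reads from DiMSum, centred on the mode score of non-aggregating sequences. It was computed only for sequences with 100 or more input reads. The reads came from Illumina sequencing of plasmid inserts from psi-negative yeast expressing Sup35N fused to peptides of 20 random codons, induced with 100 μM copper sulfate for 24 hours and grown 7 days at 30°C without adenine and uracil.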

Consider LARLCCLSVSFSKLLIVFTI, for which the amyloid nucleation score entry is “inactive”.
YIRLGWNVSWMLSSSEYVSH yielded an amyloid nucleation score of 0.853 ± 0.12.
The value for YSQVVW was “inactive”; that for SESTFYMGRLFKEGPRKHVT was “inactive”; that for LNWGLVTDSTFIWLMDTLRL was 1.05 ± 0.11.
The value for HFSKHTVTNRPYDVHNLGKC was “inactive”; that for IKYLNLVRSVPLFS was “inactive”; that for SFTIIMALCSV was “inactive”.
Consider HGWYSVFADSRRYCKRVRYT, for which the amyloid nucleation score result is “inactive”.
The value for QQKGHTYKLLYNGGRLYFPT was 0.29 ± 0.51.
With DIYFCYNIDFLYRVTLRQLR the entry was “inactive”; with DCDQVPI, “inactive”; with AWASIDVSNAL, “inactive”.
The value for CCSMARAITISGNVELKFD was “inactive”.
As to ERFSFVLVNGVRYFRSNLRW, the amyloid nucleation score result was “inactive”.
With LLNVTHSVAMTRTHGGVTYW the figure was 0.776 ± 0.17; with RRFGAFCIVPFERIVLDGWE, “inactive”; with VTSVRPIYSRCLLNYMLRSV, “inactive”.
The value for WCLNGSMYLLAVSSG was “inactive”; that for MIIPSTVMQSLSTCILERAS was “inactive”; that for PTFNRAMTWYFKFLFHYAHD was “inactive”.
With FYKLTLRSVRFLSFTYRIGA the entry was “inactive”; with YMSYRSLMNSLTSIL, “inactive”; with CAAIRGKL, “inactive”.
As to KLVAGFPAGCTK, the amyloid nucleation score result was “inactive”.
The value for YLSPEAQKLDQIDSMSADMV was “inactive”.
With YSRDSGCRIKVVPALTVRGR the entry was “inactive”.
With SVAVRWKAYVMVLSEHSPRG the entry was “inactive”; with KPSRNESLQMALLSYIYLFR, “inactive”.
Consider FRLMVGCCYGGPGREVWAGG, for which the amyloid nucleation score entry is “inactive”.
With RGICFGYLGFM the figure was 0.145 ± 0.3; with VSLVMSQVLRHHRCLLIYYL, “inactive”; with MVLGELCVPGIFALCRFECN, “inactive”.
With HSLIVYHLS the entry was “inactive”; with TYCSYTL, “inactive”.
The value for YLDFDRMFVQCEFCLTDLDL was 0.59 ± 0.13.
CFLSQLNTSDACVCLRFGWG: the amyloid nucleation score result is “inactive”.
The value for RVTFWPFVVSAFRVMYGICK was “inactive”.
With LLLYWRRTMVALRCTYFGLT the entry was “inactive”.
The value for RGMYMRYLGFLDHLNLRVFC was “inactive”; that for CWYLVLSRLLCKNSRLHSNR was “inactive”; that for RFFSFFIT was 2.44 ± 0.055.
Consider TLSYRMFINKPSGMMCEHFN, for which the amyloid nucleation score amounted to 1.05 ± 0.11.
The value for VYTRLVYIYQGVFCRIFSAC was 1.86 ± 0.094.
The value for MGLLLFLSANDV was “inactive”.
TCTAFQMHI: the amyloid nucleation score came to 0.007 ± 0.68.
The value for VPGQYWFIDGMTFGNDDTRS was “inactive”.
With KLTFNRLLKT the entry was “inactive”.
With VGNEECIYQIRFFLRLSGSL the entry was “inactive”; with PYKNI, “inactive”; with CLILSWYKYCSRGEMMHMKH, “inactive”.
AFCRNRTNVCMICYLRSG gave an amyloid nucleation score of 0.907 ± 0.17.
The value for LWPAAQLLLKRE was “inactive”.
